From US20250327081, “TDP-43-BINDING SINGLE-STRANDED APTAMERS AND USES THEREOF” (FONDAZIONE ISTITUTO ITALIANO DI TECNOLOGIA, published 2025)

Key:
[1] = target: T1, TDP-43 construct (RRM1-2) (UniProt Q13148 Q13148:104-262); test: BLI; 10 mM K phosphate pH 7.2, 150 mM KCl, 0.01% Tween20, 25 C; conditions: label: 3'-biotin
[2] = target: T1, TDP-43 construct (RRM1-2); test: as above
Experimental: (§1) The binding assays were performed in 10 mM potassium phosphate buffer (pH 7.2) with 150 mM KCl and 0.01% Tween20. Streptavidin-coated biosensors were loaded with 1 μg/ml RNA aptamer modified with biotin on the 3′end and exposed to increasing protein concentrations varying from 20 nM to 20 μM, according to the strength of the binding. Kd values were estimated by fitting the response intensity (shift in the wavelength upon binding) as a function of the protein concentration, at the steady state. The assay was repeated at least 3 times, each time in triplicate. The reported binding curves are examples of the output of one experiment.
The inventors verified whether Apt-14 preserves the ability to bind tightly to TDP-43. Bio-layer interferometry was used to determine the dissociation constant of the interaction between Apt-14 and the TDP-43 construct. This experiment was carried out with the same buffer and the same conditions employed for the experiment carried out with Apt-1.

[3] = target: T1, TDP-43 construct (RRM1-2); test: BLI; 10 mM K phosphate pH 7.2, 150 mM KCl, 0.01% Tween20, 25 C; about 90 nM in Example 7; conditions: label: 3'-biotin (BLI)
Experimental: In this study, the inventors calculated the predicted interaction propensities between the RNA aptamers of Table 1 and TDP-43 and validated the predicted interaction propensities by comparing them with the experimentally measured Kd (dissociation constant) values. To this end, the Kd between each of Apt-1, Apt-2, Apt-3, Apt-11, Apt-12 or Apt-13 and the two RNA recognition motifs of TDP-43 (RRM1-2) was determined by means of biolayer interferometry, a label-free technology to study biomolecular interactions. Importantly, RRM1-2 represents the minimal region necessary for RNA-binding with high affinity (Lukavsky et al., 2013) purifiable as a monomer under near-to-physiological conditions and in suitable quantities (Zacco et al., 2018).
as §1

[4] = target: T1, TDP-43 construct (RRM1-2); test: BLI

T1 sequence (Q13148 104-262, one chain of several): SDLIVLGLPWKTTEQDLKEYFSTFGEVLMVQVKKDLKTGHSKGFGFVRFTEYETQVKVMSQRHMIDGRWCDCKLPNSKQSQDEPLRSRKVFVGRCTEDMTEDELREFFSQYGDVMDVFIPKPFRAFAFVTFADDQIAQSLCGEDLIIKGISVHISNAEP

Binder | Kd [1] [nM] | further results
GUGGUCCCCG (ssRNA) [Apt-2] | 750 | 
GCGGGGCCCG (ssRNA) [Apt-6] | 1600 | 
CGAGGCCGGG (ssRNA) [Apt-5] | 1500 | 
GGGGUGGGGC (ssRNA) [Apt-4] | 1300 | 
CGCUGUGGUC (ssRNA) [Apt-3] | 650 | 
CGGTGTTGCT (ssDNA) [Apt-14 (DNA version of Apt-1)] |  | Kd [2]: ~76 nM
CGGUGUUGCU (ssRNA) [Apt-1] |  | Kd [3]: 100 nM
GCUGGGGUGGGGCGGAUCGGUGUUG (ssRNA) [Apt-1 (25 nt)] |  | Kd [4]: ~750 nM
